{
  "source": "patent US8673307",
  "key": {"YU2-gp120 (HIV-1 (YU2))": {"biological_target": "YU2-gp120 (HIV-1 (YU2)) (UniProt P35961)", "assay": "competition ELISA on gp120; unlabeled b12 against biotin labeled b12 (self-inhibition)"}, "[1]": {"biological_target": "YU2-gp140 trimer (artificially trimerized gp140 protein) (HIV-1 (YU2)) (UniProt P35961)", "assay": "SPR (Biacore T100), antibody immobilized on CM5 chip, gp140 trimer injected, 1:1 model"}},
  "data": [
    {"substance": "b12 (antibody)", "values": [
      {"measurement": "IC50", "setting": "YU2-gp120 (HIV-1 (YU2))", "result": 5, "unit": "µg/mL"},
      {"measurement": "Kd", "setting": "[1]", "result": 12, "unit": "nM"}
    ]}
  ]
}
